These results are taken from patent US20240150460A1 (SHENGHE CHINA BIOPHARMACEUTICAL, published 2024).

For assay [1], the target named is T1, human NKp30-his protein (KACTUS; Cat: NKP-HM430) (human, UniProt O14931 19-135, limits assumed).
T1 construct: Bought protein (KACTUS NKP-HM430); not shown: His tag
T1 sequence (looked up): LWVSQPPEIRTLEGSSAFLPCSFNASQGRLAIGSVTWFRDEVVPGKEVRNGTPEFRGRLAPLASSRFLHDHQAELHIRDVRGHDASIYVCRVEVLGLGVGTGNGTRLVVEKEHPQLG
The assay is described as follows: BLI (Octet Red96e), antibody captured on AHC sensor, 100 nM human NKp30-his in solution, 1:1 fit. How it is done:
(§1) After equilibration of the AHC sensor with 0.02% PBST (0.02% Tween 20, pH 7.4, 1*PBS) as buffer for 60 s, the NKp30 antibody in the sample plate was immobilized for 300 s and second equilibration was performed for 180 s. […] human NKp30-his protein (KACTUS; Cat: NKP-HM430) was bound with NKp30 antibody for 300 s and then dissociated for 600 s. After dissociation, 10 mM glycine (pH 2.0) was used as regeneration buffer to regenerate for 30 s.
Subtract the result plot for reference channel H1 from the test result plot. The experimental data fit the 1:1 binding model. The molecular weight of 35 kDa was used to calculate the molar concentration of human NKp30 protein.

The target of assay [2] is T1, human NKp30-his protein (KACTUS; Cat: …). The assay is described as follows: BLI (Octet Red96e), method of Example 6: antibody on AHC sensor, human NKp30-his in solution. How it is done: as §1
The affinity of the CDR-modified and humanized antibodies was tested according to the method of Example 6, and the results are shown in Table 4.
Background: Biolayer interferometry detects binding as a change in optical thickness at a sensor tip.

For assay [3] the target is unchanged. The assay is described as follows: ELISA, Human-NKp30-His coated at 0.2 µg/mL, antibody from 10 µg/mL in 3-fold steps, goat anti-human Fc, OD450 (Example 11). Here is the method:
Human-NKp30-His (purchased from KACTUS, item No. NKP-HM430) was diluted to 0.2 μg/mL with the coating solution (1×PBS, pH 7.4), and was coated into 96-well enzyme-labelled plates at 100 μL/well and allowed to stand overnight at 4° C. The coating solution was poured off, the plate was washed with 1×PBST at 300 μL/well, washed with a plate washer for 4 times, and patted dry on a plate paper. The plate was blocked with 3% skimmed milk powder at 300 μL/well, and incubated at 37° C. for 1 h. The blocking solution was poured off, washed with a plate washer for 4 times, and patted dry on a plate paper. The reference product and the test product were diluted with 3% skimmed milk powder to 10 μg/mL, and the initial concentration was diluted by 3 times. A total of 11 gradients were diluted, and another blank well was set, and only diluent was added. It was incubated at 37° C. and 100 μL/well for 1 h. Liquid in the wells was discarded, and washed with a plate washer for 4 times, and patted dry on a plate paper. The goat anti-human Fc was diluted with 3% skimmed milk powder at 1: 20,000 and 100 μL/well, and incubated at 37° C. for 1 h. The plate was washed with a plate washer for 6 times, and patted dry on a plate paper. TMB color developing solution was added at 100 μL/well, and wrapped with an aluminum foil, and the color was developed at 37° C. for 8 minutes, protected from light. The termination solution 1 M HCl was added at 100 μL/well to terminate the color development reaction. It was read at 450 nm on an enzyme-labeled instrument.
On the technique in general: An ELISA detects its analyte on a solid surface through an enzyme-linked reagent.

Changes are numbered by the printed parent chain.

B1: antibody 22 (antibody, V domains shown)
VH: QVQLVESGGGLVQPGGSLRLSCAASGSIFSANVMGWYRQAPGKLRELVAGMHSGGSANYADSVKGRFTISKDNAKNTMYLQMNSLKPEDTAVYYCNFGLGFDGHDYWGQGTQVTVSA
notes: expressed in CHO cells
For the molecule B1, the affinity in assay [1], expressed as Kd, was 2.31 nM. That is a single-digit nanomolar value.

B2: antibody 12 (antibody, V domains shown)
VH: EVQLVESGGDLVQPGGSLRLSCAAFGSSFSIDMMGWYRQVPGKQRELVAGITKGGFADYADSVKGRFTISMDAAKNTVYLQMNSLKPEDTAVYYCNTLPTHSDWGQGTQVTVSS
notes: expressed in CHO cells
As for B2, in assay [1], the Kd (commonly the constant that tells how readily two partners part at equilibrium) was determined as 0.491 nM.

B3: antibody 19 (antibody, V domains shown)
VH: B2 VH with L4V
notes: expressed in CHO cells
Molecule B3 showed a Kd in assay [1] of 1.81 nM.

B4: antibody 17 (antibody, V domains shown)
VH: QLQLVESGGGLVQPGGSLRLSCAASGSIDSINAMGWYRQAPGKLRELVAGITRGGDVNYADSVKGRFTISRVDARNTVTVYLQMNSLKPEDTAVYYCNNLGFPSDWAQGTQVTVSS
notes: expressed in CHO cells
In turn, B4 showed a Kd in assay [1] of 1.26 nM.

B5: antibody 20 (antibody, V domains shown)
VH: EVQLVESGGGLVQPGGSLRLSCAASGSAFSIEPWGWYRQAPGQLRELVAGITSDDKTDYADSVKDRFTISRDNAKNTVFLQMNSLKPEDTAVYYCNVLGWPRDDYWGQGTQVTVSS
notes: expressed in CHO cells
Molecule B5 registered a Kd in assay [1] of 1.25 nM.

B6: antibody 7 (antibody, V domains shown)
VH: EVQVVESGGGLVQAGGSLRLSCAASGRTFSNYNVGWFRQAPGKEREFLATISESGGSTYYADSVKGRFTISRDNGINMVYLQMSSLKPEDTAVYYCAESRIFSFSYADGRGYAYWGQGTQVTVFS
notes: expressed in CHO cells
As for B6, the affinity in assay [1], expressed as Kd, was 9.64 nM.

B7: antibody 2 (antibody, V domains shown)
VH: QVQLVESGGGLVQPGGSLRLSCAASGSIFSVNEMGWYRQAPGKLRELVAAITSDGTTAYADSVKGRFTISRDNAKNTVYLQMNSLKPEDTAVYDCNTWPEARGDWGQGTQVTVSS
notes: expressed in CHO cells
In assay [1], B7 gave a Kd of 0.597 nM.

B8: antibody 14 (antibody, V domains shown)
VH: B7 VH with V2L, A24V, G26A, E100Q
notes: expressed in CHO cells
For B8, the Kd in assay [1] came out at 1.35 nM.

B9: antibody 9 (antibody, V domains shown)
VH: QVQLVESGGGSVQAGGSLRLSCAASGRTFSDYVMGWFRQAPGKEREFVGTITRIGGMPYYADFVKGRFTISRDYAKNAGYLQLNNLKPEDTALYYCALDLRLRLGVTPREYDYWGQGTQVTVSS
notes: expressed in CHO cells
As to B9, the Kd in assay [1] was 5.56 nM.

B10: antibody 4 (antibody, V domains shown)
VH: QVQLVESGGGLVQPGGSLRLSCAASGSIFKINAMGWYRQAPGKLRELVAGITSGGSTNYADSVKGRFTISRDNAKNTLYLQMNSLKPDDTAVYYCNQLGFPQYWGQGTQVTVSS
notes: expressed in CHO cells
The molecule B10 yielded a Kd in assay [1] of 4.97 nM.

B11: antibody 11 (antibody, V domains shown)
VH: EVQLVESGGGLVQPGESLRLSCVASGGDFRFKSMGWYRQAPGKLRELVAGITTGGVTDYADSVKGRFTISRDNANKAVWLQMNRLKPDDTAVYDCNTLGAAAYDWGQGTQVTVSS
notes: expressed in CHO cells
In assay [1], B11 gave a Kd of 3.06 nM.

B12: antibody 13 (antibody, V domains shown)
VH: EVQLVESGGGLVQPGGSLRLSCAASGGIFGSTHMGWYRQAPGKLREMVAGITSTGNHRNVADSVKGRFTISKDNAKNTLYLQMNSLKPEDTAVYYCNSFPDQVFNWGQGTQVTVSS
notes: expressed in CHO cells
As for B12, the Kd in assay [1] amounted to 0.433 nM.

B13: antibody 23-hu44 (antibody, V domains shown)
VH: EVQLVESGGGLVQPGGSLRLSCAASGSIFSPNGIGWYRQAPGKGRELVSGITGNGLTDYAESVKGRFTISRDNSKNTVYLQMNSLRAEDTAVYYCALLLNHAEWGQGTLVTVSS
In assay [2], B13 had a Kd of 1.3 nM.

B14: antibody 6 (antibody, V domains shown)
VH: QVQLVESGGGLVQPGGSLRLSCAASRAIFPEYSIAWFRQAPGKEREGVALVSRIGDRVDYADSVKGRFTISRDNAKNTVYLQMNSLKPEDTAVYHCAAGQLSSSTYYGDEYVYWGQGTQVTVSS
notes: expressed in CHO cells
The molecule B14 returned a Kd in assay [1] of 2.88 nM.

B15: antibody 5 (antibody, V domains shown)
VH: EVQVVESGGGLVQAGGSLTLSCAASGRPFSTFPTSMGWFRQAPGKEREFVAAISESGLNTYYRDSVKGRFGISRDNAKNTVYLQMNTLTAEDTAVYFCAAAPGYMTTDSQYYLGNKYQYWGQGTQVTVSS
notes: expressed in CHO cells
Consider B15, for which binding in assay [1] was characterised by a dissociation constant (Kd) of 104 nM. This Kd lies about 36-fold higher than the previous one.

B16: antibody 16 (antibody, V domains shown)
VH: EVQLVESGGGLVQAGGSLRLSCAASGISLITYNMGWYRQAPGKLRELVAGITTGGITDYTDSVKGRFTISRDNAKNTLYLQMNSLKPEDTAVYYCDTLGMANYWGQGTQVTVSS
notes: expressed in CHO cells
Turning to B16, the Kd in assay [1] was found to be 0.997 nM.

B17: antibody 15 (antibody, V domains shown)
VH: EVQLVESGGGSVQTGGSLRLSCAASGPTFNFYGMAWFRQAPGKEREFVASIIPGSGDTSYASSVRGRFTISEDNARNNAYLQMNTLKPEDTAVYYCAAGTGGIYSSDYPYWGQGTQVTVSS
notes: expressed in CHO cells
In assay [1], B17 had a dissociation constant (Kd) of 0.347 nM.

B18: antibody 8 (antibody, V domains shown)
VH: QVQLVESGGGLVQTGDSLRLSCAASGRTYDNYAMGWFRQAPGKEREFVAAFSQNGGRTDYADSVKGRFAISDDRSTVHLDMNSLLPEDTAVYYCAARPPAYFSNAVYSKVDEYRYWGQGTQVTVSS
notes: expressed in CHO cells
Consider B18, for which the Kd in assay [1] was 9.11 nM.

B19: antibody 1 (antibody, V domains shown)
VH: QLQLVESGGGTVQTGGSLRLACVVSGPTYSFYDMGWFRRAPGKEREFVAAVTASGDTTIYADSVKGRFTIARDNAKNTVYLQMNSLKSEDTGAYYCAAGEYSSTAATYYYWGQGTQVTVSS
notes: expressed in CHO cells
In assay [1], B19 gave a Kd of 1.46 nM.

B20: antibody 18-hu1 (antibody, V domains shown)
VH: EVQLVESGGGLVQPGGSLRLSCAASGIRFSIANMGWYRQAPGKLHEMVSGITSDGFTNYADSVKGRFTISRDNSKNTLYLQMNSLRAEDTAVYYCAKFPTRHYWGQGTLVTVSS
In the case of B20, the EC50 (in general, the concentration that produces a half-maximal response) in assay [3] is 0.0348 mg/L.

B21: antibody 18-hu2 (antibody, V domains shown)
VH: B20 VH with S49A
On to B21, for which the EC50 in assay [3] stood at 0.0105 mg/L.

B22: antibody 3 (antibody, V domains shown)
VH: QLQLVESGGGLVQTGDSTKLSCTASGRSFSINDMGWYRQAPGKLRELVAGITSGGSTNYADSVKGRFTISRDNAKNTVYLQMNSLKPEDTAVYYCNVLGWPDFGSWGQGTQVTVSS
notes: expressed in CHO cells
As for B22, the affinity in assay [1], expressed as Kd, was 2.07 nM.

B23: antibody 10-hu4 (antibody, V domains shown)
VH: EVQLVESGGGLVQPGGSLRLSCAASGITFSRSVMGWFRQAPGKLRELVAGITSDDNTDYADSVKGRFTISRDNSKNTLYLQMNSLRAEDTAVYYCNILPDSRLGWGQGTLVTVSS
Turning to B23, the EC50 in assay [3] turned out to be 0.00719 mg/L.

B24: antibody 10-hu5 (antibody, V domains shown)
VH: B23 VH with A24V
With B24, a half-maximal effect in assay [3] (EC50) was put at 0.0104 mg/L. The EC50 values of the last two molecules are within 1.5-fold of each other.

B25: antibody 10-hu1 (antibody, V domains shown)
VH: B23 VH with A49S, N96A, I97R
As for B25, the response in assay [3] was half-maximal at 0.378 mg/L (EC50). Against the preceding molecule, the EC50 is about 36-fold higher.

B26: antibody 10-hu2 (antibody, V domains shown)
VH: B23 VH with N96A, I97R
In the case of B26, the EC50 in assay [3] came out at 0.0246 mg/L. Against the preceding molecule, the EC50 is about 15-fold lower.

B27: antibody 10-hu3 (antibody, V domains shown)
VH: B23 VH with N96A
Consider B27, for which a half-maximal response in assay [3] (EC50) required 0.0118 mg/L.

B28: antibody 10 (antibody, V domains shown)
VH: B23 VH with E1Q, R19T, A24V, S74A, L78V, R86K, A87P, L110Q
notes: expressed in CHO cells; also called chimeric antibody 10
The molecule B28 gave an EC50 in assay [3] of 0.00522 mg/L. Moreover, the Kd in assay [1] worked out at 0.201 nM.

B29: antibody 21 (antibody, V domains shown)
VH: EVQLVESGGGLVQPGGSLRLSCAASGSTYAFYNMGWFRQRPGKEREFAAAILWGRSGVYTTYADSVKGRFTISRDNAQNTVYLQMNSLKPEDTAVYYCAAGLGTMRANEYDYWGQGTQVTVSS
notes: expressed in CHO cells
B29: the affinity in assay [1], expressed as Kd, was 20.1 nM. This lies in the double-digit nanomolar range.
